# Assay results as given in US6828121.
# B1: Prc protease (periplasmic C-terminal processing protein) (protein)
# chain: VEDITRADQIPVLKEETQHATVSERVTSRFTRSHYRQFDLDQAFSAKIFDRYLNLLDYSHNVLLASDVEQFAKKKTELGDELRSGKLDVFYDLYNLAQKRRFERYQYALSVLEKPMDFTGNDTYNLDRSKAPWPKNEAELNALWDSKVKFDELSLKLTGKTDKEIRETLTRRYKFAIRRLAQTNSEDVFSLAMTAFAREIDPHTNYLSPRNTEQFNTEMSLSLEGIGAVLQMDDDYTVINSMVAGGPAAKSKAISVGDKIVGVGQTGKPMVDVIGWRLDDVVALIKGPKGSKVRLEILPAGKGTKTRTVTLTRERIRLEDRAVKMSVKTVGKEKVGVLDIPGFYVGLTDDVKVQLQKLEKQNVSSVIIDLRSNGGGALTEAVSLSGLFIPAGPIVQVRDNNGKVREDSDTDGQVFYKGPLVVLVDRFSASASEIFAAAMQDYGRALVVGEPTFGKGTVQQYRSLNRIYDQMLRPEWPALGSVQYTIQKFYRVNGGSTQRKGVTPDIIMPTGNEETETGEKFEDNALPWDSIDAATYVKSGDLTAFEPELLKEHNARIAKDPEFQNIMKDIARFNAMKDKRNIVSLNYAVREKENNEDDATRLARLNERFKREGKPELKKLDDLPKDYQEPDPYLDETVNIALDLAKLEKARPAEQPAPVK
# Molecular target: humanized anti-CD18 kappa light chain
protein,measurement,value
B1,kappa LC cleavage (LC clips on 1-D/2-D gels and peak 1 of the AME5/RP assay in prc-plus against prc-deletion strains),Here it is shown that Prc is the only protease involved in kappa LC cleavage inside E. coli cells.
